Columns and labels:
rat tail collagen = molecular target: T1, rat tail collagen (Rattus norvegicus, UniProt P02454+P02466); assay: rat tail collagen-binding assay; conditions: 2 hours at room temperature, single binding site model
T1 construct: from tissue; host or cells: rat tail
Experimental: Binding isotherms were obtained by following a method previously reported. (Caravan, P., Das, B., Dumas, S., Epstein, F. H., Helm, P. A., Jacques, V., Koerner, S., Kolodziej, A., Shen, L., Sun, W., Zhang, Z., Angewandte Chemie, 2007, 119(43), 8319-8321.) Briefly, increasing concentrations of a mixture of ^63/65Cu-CBP(n) and ^64Cu-CBP(n) were added to collagen containing wells. […] An aliquot of each solution was reserved as a measure of the total concentration. The plates were incubated on a shaker table (300 rpm) for 2 hours at room temperature to allow the compound to bind. After 2 hours, the supernatant from each well (with or without collagen) was assayed for ^64Cu content. The relative amount of free, unbound compound in the sample supernatants and the amount of compound in the reserved (total) sample were determined by using a gamma counter. The bound concentration is [Total]−[Free]. The concentration of ^63/65Cu-CBP(n) was less than the collagen concentration and the data were fit to a model of a single binding site with dissociation constant, Kd.

in vivo = type: in vivo, mouse; conditions: male, C57/BL6, mouse, in vivo, iv, total radioactivity, Biodistribution % ID/g, sm. intestine
Experimental: (§1) Pulmonary fibrosis was induced in 7-8-week-old male C57/BL6 mice by transtracheal administration of bleomycin (BM; 2.5 U/kg) in 50 μL of PBS under direct vision using a small cervical incision. Sham animals received only PBS. Animals were placed in a small-animal PET/SPECT/CT scanner (Triumph; TriFoil Imaging), equipped with inhalation anesthesia and heating pad. Each animal was anesthetized with isoflurane (4% for induction, 2-2.5% for maintenance in medical air) and body temperature was kept at 37-38° C. using a heating pad. The femoral vein was cannulated for intravenous delivery of the PET agent. Each mouse was injected with approximately 0.1 mL and 20-50 μCi of ^64Cu-CBP(n), 0.1 mL and 20-50 μCi of ^68Ga-CBP(n) and 0.1 mL and 10-20 μCi of Al^18F-CBP(n) in a 18 mM solution of sucrose in water, followed by saline flush. […] The lungs, blood, urine, heart, liver, left rectus femoris muscle, spleen, small intestine, kidneys, left femur bone were collected from all animals. The tissues were weighed, and radioactivity in each tissue was measured on a gamma counter (CobraII Auto gamma; Packard). The radioactivity in the lung was reported as percent injected dose per gram corrected with the average sham weight, which was calculated by dividing the counts of ^64Cu per average sham tissue weight in gram by the total of counts of the injected dose. The radioactivity in every other tissue was reported as percent injected dose per gram (% ID/g), which was calculated by dividing the counts of ^64Cu per gram of tissue by the total of counts of the injected dose. A p-value of less than 0.05 was considered significant. Uncertainties are expressed as the standard error of the mean.

[1] = system: pulmonary fibrosis, C57/BL6 mice (bleomycin or sham); assay: in vivo; type: in vivo, mouse; conditions: in vivo, iv
Experimental: as §1

[2] = system: pulmonary fibrosis, C57/BL6 mice (bleomycin or sham); conditions: mouse, in vivo
Experimental: Pulmonary fibrosis was induced in 7-8-week-old male C57/BL6 mice by transtracheal administration of bleomycin (BM; 2.5 U/kg) in 50 μL of PBS under direct vision using a small cervical incision. Sham animals received only PBS. Animals were placed in a small-animal PET/SPECT/CT scanner (Triumph; TriFoil Imaging), equipped with inhalation anesthesia and heating pad. Each animal was anesthetized with isoflurane (4% for induction, 1-1.5% for maintenance in medical air). After placement of an in-dwelling catheter in the femoral vein for probe administration, mice were positioned in the PET-CT and the probe was given as a bolus as the PET acquisition began. Mice were imaged continuously by PET for 120 minutes. […] Instrument calibration was performed with phantoms containing small known amounts of radioactivity. […] Reconstructed PET/CT data were quantitatively evaluated using AMIDE software package (Loening and Gambhir, 2003). […] The radioactivity concentration within organs was obtained from mean pixel values within the VOI volume and converted to counts per milliliter per minute and then divided by the injected dose (ID) to obtain an imaging VOI-derived percentage of the injected radioactive dose per cubic centimeter of tissue (% ID/cc). […] Instrument calibration was performed with phantoms containing small known amount of radioactivity. […]

[3] = rat, in vivo
Experimental: The pharmacokinetics and metabolic stability of the probes were evaluated in Adult male Wistar rats. The right femoral vein was cannulated for intravenous delivery of the PET agent and the right femoral artery was cannulated for blood sampling. Each animal was injected with approximately 50-70 μCi of ^64Cu-CBP(n) diluted in 0.2-0.3 mL with an 18 mM solution of sucrose in water, followed by saline flush. After probe injection, several blood draws were collected at 0, 2, 5, 10, 15, 30, 60 and 120 minutes post injection into ethylenediaminetetraacetic acid (EDTA) blood tubes. Blood was weighed, and radioactivity in the blood was measured on a gamma counter to assess clearance of total ^64Cu. The serum was isolated by centrifugation of the blood (10 minutes, 4950 rpm) and proteins were precipitated with a mixture of cold methanol/acetonitrile (1/1). Solids were removed by centrifugation and the supernatant was injected onto an analytic HPLC column. The eluent was collected every 30 seconds, and the activity of each fraction was measured using a gamma counter. The result was compared with standards of pure probe and probe immediately isolated from plasma (t=0 sample).

T1 sequence (P02454 152-1207 limits assumed): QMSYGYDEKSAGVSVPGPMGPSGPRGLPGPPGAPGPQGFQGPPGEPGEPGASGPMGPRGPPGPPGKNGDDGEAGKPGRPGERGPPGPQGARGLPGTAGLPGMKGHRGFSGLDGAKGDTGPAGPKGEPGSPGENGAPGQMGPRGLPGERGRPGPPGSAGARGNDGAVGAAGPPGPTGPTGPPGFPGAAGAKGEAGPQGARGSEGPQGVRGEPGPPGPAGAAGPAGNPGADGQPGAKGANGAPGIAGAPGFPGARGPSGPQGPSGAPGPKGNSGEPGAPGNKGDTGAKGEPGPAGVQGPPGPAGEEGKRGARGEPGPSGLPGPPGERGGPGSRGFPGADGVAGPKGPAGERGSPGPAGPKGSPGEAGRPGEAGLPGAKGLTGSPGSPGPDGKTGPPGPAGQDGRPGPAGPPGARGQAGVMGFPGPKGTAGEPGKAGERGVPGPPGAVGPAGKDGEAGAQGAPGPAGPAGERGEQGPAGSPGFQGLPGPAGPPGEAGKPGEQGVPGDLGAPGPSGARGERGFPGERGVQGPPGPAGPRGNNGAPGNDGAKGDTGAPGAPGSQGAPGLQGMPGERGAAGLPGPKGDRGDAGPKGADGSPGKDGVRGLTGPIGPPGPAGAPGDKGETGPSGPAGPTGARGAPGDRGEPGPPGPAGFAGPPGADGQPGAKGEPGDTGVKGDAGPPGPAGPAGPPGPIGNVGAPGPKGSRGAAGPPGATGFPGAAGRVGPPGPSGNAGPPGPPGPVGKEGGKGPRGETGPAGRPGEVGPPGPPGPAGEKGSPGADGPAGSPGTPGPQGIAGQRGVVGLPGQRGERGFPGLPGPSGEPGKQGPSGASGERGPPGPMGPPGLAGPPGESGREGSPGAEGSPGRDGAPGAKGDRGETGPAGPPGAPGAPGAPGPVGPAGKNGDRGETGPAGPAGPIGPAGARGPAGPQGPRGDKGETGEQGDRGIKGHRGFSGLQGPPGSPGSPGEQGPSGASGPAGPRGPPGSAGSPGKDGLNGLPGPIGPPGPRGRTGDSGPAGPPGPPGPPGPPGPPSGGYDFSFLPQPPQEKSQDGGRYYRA
T1 sequence (P02466 86-1125 limits assumed): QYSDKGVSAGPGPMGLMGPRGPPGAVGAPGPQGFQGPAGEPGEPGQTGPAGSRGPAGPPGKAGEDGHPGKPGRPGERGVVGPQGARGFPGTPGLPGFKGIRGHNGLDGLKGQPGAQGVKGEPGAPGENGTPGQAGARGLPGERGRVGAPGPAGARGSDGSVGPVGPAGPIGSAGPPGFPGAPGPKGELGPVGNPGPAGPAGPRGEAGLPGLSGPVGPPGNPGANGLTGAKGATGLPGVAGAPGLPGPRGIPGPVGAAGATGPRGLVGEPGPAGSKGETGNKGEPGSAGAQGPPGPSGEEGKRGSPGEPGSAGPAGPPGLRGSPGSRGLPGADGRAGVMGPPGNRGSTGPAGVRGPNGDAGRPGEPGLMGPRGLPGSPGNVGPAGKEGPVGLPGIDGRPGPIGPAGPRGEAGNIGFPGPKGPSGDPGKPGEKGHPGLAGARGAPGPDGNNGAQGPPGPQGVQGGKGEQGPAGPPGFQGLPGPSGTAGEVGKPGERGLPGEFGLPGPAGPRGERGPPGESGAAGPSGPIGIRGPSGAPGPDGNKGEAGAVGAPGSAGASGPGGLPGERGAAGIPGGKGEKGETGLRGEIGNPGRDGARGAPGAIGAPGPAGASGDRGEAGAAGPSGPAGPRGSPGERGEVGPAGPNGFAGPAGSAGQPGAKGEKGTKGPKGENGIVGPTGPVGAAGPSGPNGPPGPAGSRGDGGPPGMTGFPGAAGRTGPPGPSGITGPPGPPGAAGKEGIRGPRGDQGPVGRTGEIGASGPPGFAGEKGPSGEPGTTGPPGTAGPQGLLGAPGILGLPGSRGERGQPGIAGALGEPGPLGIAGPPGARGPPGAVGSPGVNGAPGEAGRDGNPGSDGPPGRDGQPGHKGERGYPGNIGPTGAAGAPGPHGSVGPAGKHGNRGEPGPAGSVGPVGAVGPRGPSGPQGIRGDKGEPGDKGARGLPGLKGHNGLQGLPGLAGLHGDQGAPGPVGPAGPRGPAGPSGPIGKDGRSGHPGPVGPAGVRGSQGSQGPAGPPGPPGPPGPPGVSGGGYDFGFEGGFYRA

Kd (rat tail collagen): 2400 ± 1500 nM
SMILES: CC(C)C[C@H](NC(=O)[C@@H]1CSSC[C@H](NC(=O)[C@H](Cc2c[nH]cn2)NC(=O)[C@H](Cc2c[nH]c3ccccc23)NC(=O)[C@H](CCCCNC(=O)CNC(=O)CCC(C(=O)O)N2CCN(CC(=O)O)CCN(CC(=O)O)CC2)NC(=O)CNC(=O)CCC(C(=O)O)N2CCN(CC(=O)O)CCN(CC(=O)O)CC2)C(=O)N[C@@H]([C@@H](C)O)C(=O)N[C@@H]([C@@H](C)O)C(=O)N[C@@H](CCCCNC(=O)CCC(C(=O)O)N2CCN(CC(=O)O)CCN(CC(=O)O)CC2)C(=O)N[C@@H](Cc2ccccc2)C(=O)N2CCC[C@H]2C(=O)N[C@@H](Cc2c[nH]cn2)C(=O)N[C@@H](Cc2c[nH]cn2)C(=O)N[C@@H](Cc2ccc(O)cc2)C(=O)N1)C(=O)N[C@@H](Cc1ccc(O)cc1)C(=O)N[C@@H](Cc1ccc(-c2ccccc2)cc1)C(N)=O (single isomer, unassigned) [CBP7]
tissue uptake at 2 h (in vivo): 0.853 ± 0.246 %ID/g
Biodistribution % ID/g, sm. intestine ([1]; male, C57/BL6, mouse, 2 h): 0.877 ± 0.077 % ID/g
route of excretion ([1]; mouse): excreted mainly through the kidneys
Mean PET activity in heart and muscle, BM-treated vs sham, in words [2]: not significantly different
metabolic stability compared with CBP(n) probes with a single NODAGA chelator [3]: more metabolically stable

Reference: patent publication US10471162B2, “Collagen targeted imaging probes” (priority 2014, dated 2019)
